{"source": "patent US20250207119A1", "key": {"[1]": {"target": "ADAM17 from R & D Systems (UniProt P78536)", "sequence (P78536 215-671 limits assumed)": "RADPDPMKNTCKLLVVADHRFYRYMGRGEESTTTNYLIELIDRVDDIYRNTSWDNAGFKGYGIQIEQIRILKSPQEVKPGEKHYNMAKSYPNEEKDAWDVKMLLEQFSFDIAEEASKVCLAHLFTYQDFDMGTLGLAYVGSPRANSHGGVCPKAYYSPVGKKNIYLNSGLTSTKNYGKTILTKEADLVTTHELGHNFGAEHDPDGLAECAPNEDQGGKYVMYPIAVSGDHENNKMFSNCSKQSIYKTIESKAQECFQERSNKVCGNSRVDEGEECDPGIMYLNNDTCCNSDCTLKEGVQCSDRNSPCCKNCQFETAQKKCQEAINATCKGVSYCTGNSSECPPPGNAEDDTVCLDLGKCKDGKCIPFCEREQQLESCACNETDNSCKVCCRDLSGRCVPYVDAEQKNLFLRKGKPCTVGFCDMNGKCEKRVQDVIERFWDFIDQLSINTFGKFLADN", "test": "cell-based or functional assay"}, "[2]": {"target": "Human ADAM10 from R & D Systems (human) (UniProt O14672)", "sequence (O14672 214-672 limits assumed)": "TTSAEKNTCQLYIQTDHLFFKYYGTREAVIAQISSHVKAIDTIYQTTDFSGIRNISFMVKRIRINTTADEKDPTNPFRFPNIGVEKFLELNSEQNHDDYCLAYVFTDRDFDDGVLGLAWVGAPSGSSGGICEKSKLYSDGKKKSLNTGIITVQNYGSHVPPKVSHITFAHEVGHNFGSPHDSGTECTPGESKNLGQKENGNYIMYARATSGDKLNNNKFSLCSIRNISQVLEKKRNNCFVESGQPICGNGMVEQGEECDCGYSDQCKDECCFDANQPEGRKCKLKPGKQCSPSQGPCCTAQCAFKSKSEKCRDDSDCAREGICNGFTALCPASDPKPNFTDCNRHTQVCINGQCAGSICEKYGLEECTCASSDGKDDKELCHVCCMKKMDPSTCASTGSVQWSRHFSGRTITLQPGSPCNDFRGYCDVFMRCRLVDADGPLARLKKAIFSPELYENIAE", "test": "cell-based or functional assay"}}}
{"binder": "Cys151-pegylated SEQ ID NO: 1 (peptide, not shown: small tags and cut ends, 10 kDa maleimide PEG on Cys151) NPLNKYIRHYEGLSYNVDSLHQKHQRAKRAVSHEDQFLRLDFHAHGRHFNLRMKRDTSLFSDEFKVETSNKVLDYDTSHIYTGHIYGEEGSFSHGSVIDGRFEGFIQTRGGTFYVEPAERYIKDRTLPFHSVIYHEDDINYPHKYGPQGGCADHSVFERMRKYQMTGVEEVTQIPQEEHAANGPELLRK", "values": [{"measurement": "percent inhibition of ADAM17 activity", "setting": "[1]", "value": 33, "unit": "% at 6.7 µM"}, {"measurement": "IC50 (nM), inhibition of ADAM10 cleavage of the fluorescent substrate PEPDAB064", "setting": "[2]", "value": 49, "unit": "nM"}]}
